From article PMC6775779

Target: HIV-1 integrase Q214C/Q221C double mutant, in virions (HIV-1)
Assay: cross-linking

In the case of “HIV-1 integrase Q214C/Q221C double mutant, in virions (enzyme)”, the fold increase of the dimer percentage over WT is reported as 3 fold and the stoichiometry N is reported as 2.
